According to US20180142261A1:

Target: mouse CD4 (mouse) (UniProt P06332)
Assay: flow cytometry, primary C57BL/6 splenocytes ex vivo, siCy5 signal (FIG. 4B)

UniProt P06332, sequence (P06332 27-457): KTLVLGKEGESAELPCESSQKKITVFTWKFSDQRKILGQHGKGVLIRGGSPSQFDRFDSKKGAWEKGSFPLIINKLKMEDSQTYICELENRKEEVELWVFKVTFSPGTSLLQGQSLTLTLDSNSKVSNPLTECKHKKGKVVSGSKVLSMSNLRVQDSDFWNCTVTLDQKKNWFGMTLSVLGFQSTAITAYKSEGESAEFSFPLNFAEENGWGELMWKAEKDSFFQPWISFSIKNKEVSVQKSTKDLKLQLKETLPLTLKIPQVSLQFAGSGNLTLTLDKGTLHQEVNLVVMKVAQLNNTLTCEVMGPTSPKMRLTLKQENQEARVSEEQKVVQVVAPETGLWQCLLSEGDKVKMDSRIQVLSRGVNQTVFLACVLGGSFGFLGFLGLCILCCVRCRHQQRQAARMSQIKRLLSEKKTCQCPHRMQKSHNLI

percent of CD4+ cells that bind [%]	Substance
1	isoLNPs: lipid nanoparticles coated with an isotype control mAb (antibody)
100	tLNPs: lipid nanoparticles (siRNA-encapsulating) conjugated to DTT-reduced anti-mouse CD4 monoclonal antibody (clone YTS.177)
